Reference: patent US9518268B2, “Drought tolerant transgenic plants and method of making same” (PURDUE RESEARCH FOUNDATION, priority 2013, dated 2016)

Columns and labels:
ABI1 [1] = assay: Phosphatase activity assay (pNPP) with purified PP2Cs and PYLs; format: biochemical, Arabidopsis thaliana; conditions: in the presence of 10 μM ABA; ABI1 and PYLs 0.3 μM
Protocol: (§1) The inhibition by PYL13 is ABA-independent, whereas the inhibition by PYR1 and PYL2 is ABA-induced (FIG. 4B). […] The phosphatase activities of PP2CA, ABI1, and ABI2 were measured in the absence or presence of ABA (1.25 μM), and with or without PYLs. The concentration of PP2Cs and PYLs was 0.3 μM. The A405 value of reaction without PP2C was set as 0% and that of the reaction with PP2C but without ABA and PYLs was set as 100%. Error bars indicate s.e.m. (n=6 for PP2CA and ABI2, and n=3 for ABI1).
(§2) To test the functional significance of potential heterodimer formation between PYL13 and other PYLs, the abilities of PYL1 and PYL2 and the protein complexes PYL13-PYL1 and PYL13-PYL2 to inhibit the phosphatase activity of ABI1 were compared using purified recombinant proteins and the synthetic phosphatase substrate pNPP. […] The phosphatase activity of ABI1 was measured (using pNPP) in the absence or presence of 10 μM ABA, with or without PYLs, and with PYL13-PYL dimers. The concentration of ABI1 and PYLs was 0.3 μM. The A405 value of reaction without ABI1 was set as 0% and that of the reaction with ABI1 but without ABA and PYLs was set as 100%. Error bars indicate s.e.m. (n=6). In the presence of 10 μM ABA, ABI1 phosphatase activity was reduced to 67±6% by PYL1 but only to 88±8% by PYL13-PYL1. In the presence of 10 μM ABA, ABI1 phosphatase activity was reduced to 50±3% by PYL2 but only to 78±10% by PYL13-PYL2.
(§3) Phosphatase activity was measured using the colorimetric substrate p-nitrophenyl phosphate (pNPP, SIGMA). Reactions were performed in a reaction buffer containing 50 mM Tris-HCl, pH 7.5, 25 mM Mg(OAc)2, 2 mM MnCl2, 0.5 mM EGTA, 0.5% β-mercaptoethanol, and 0.5% BSA. ABA and PYLs were added as indicated. The concentration of PP2Cs and PYLs was 0.3 μM. Reactions were initiated by the addition of pNPP to a final concentration of 50 mM. The hydrolysis of pNPP was measured by following the absorbance at 405 nm (A405). Because His-PYL13 is difficult to purify, is prone to degradation, and rapidly loses activity, newly purified PYL13 was used for the phosphatase activity assay.

ABI2 = target: T1, ABI2 (Arabidopsis thaliana, UniProt O04719); assay: as above; format: biochemical; conditions: PP2Cs and PYLs 0.3 μM
T1 construct: GST (N, cleaved yes); made in house; host or cells: Escherichia coli BL21 (DE3.0)
T1 sequence (O04719 1-423): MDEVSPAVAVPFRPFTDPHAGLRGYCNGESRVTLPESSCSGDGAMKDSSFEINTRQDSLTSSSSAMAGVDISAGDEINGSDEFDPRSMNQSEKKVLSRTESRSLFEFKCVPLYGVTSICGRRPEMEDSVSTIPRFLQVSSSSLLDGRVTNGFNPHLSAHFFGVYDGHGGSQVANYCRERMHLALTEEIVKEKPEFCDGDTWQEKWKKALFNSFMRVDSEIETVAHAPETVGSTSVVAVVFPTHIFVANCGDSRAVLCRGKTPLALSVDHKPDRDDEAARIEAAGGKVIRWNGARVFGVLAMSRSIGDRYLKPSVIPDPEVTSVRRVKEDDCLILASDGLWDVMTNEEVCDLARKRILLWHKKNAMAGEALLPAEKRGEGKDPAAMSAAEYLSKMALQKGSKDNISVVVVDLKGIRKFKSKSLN
Protocol: as §1, §3

ABI1 [2] = target: T2, ABI1 (Arabidopsis thaliana, UniProt P49597); assay: as above; format: biochemical; conditions: PP2Cs and PYLs 0.3 μM
T2 construct: GST (N, cleaved yes); made in house; host or cells: Escherichia coli BL21 (DE3.0)
T2 sequence (P49597 1-434): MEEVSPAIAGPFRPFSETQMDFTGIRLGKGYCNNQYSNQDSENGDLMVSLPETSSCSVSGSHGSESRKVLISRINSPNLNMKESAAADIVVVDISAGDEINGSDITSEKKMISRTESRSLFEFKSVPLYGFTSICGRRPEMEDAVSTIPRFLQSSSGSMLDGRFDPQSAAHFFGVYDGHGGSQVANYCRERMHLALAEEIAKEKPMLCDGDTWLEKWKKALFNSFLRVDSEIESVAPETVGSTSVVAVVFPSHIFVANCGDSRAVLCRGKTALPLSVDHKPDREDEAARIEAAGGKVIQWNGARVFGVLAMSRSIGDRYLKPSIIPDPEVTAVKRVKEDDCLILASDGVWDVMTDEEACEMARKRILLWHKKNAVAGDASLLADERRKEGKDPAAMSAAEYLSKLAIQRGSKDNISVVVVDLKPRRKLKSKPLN
Protocol: as §1, §2, §3

clade A PP2Cs = assay: Yeast two-hybrid assay of PYL13 with clade A PP2Cs; format: binding, Arabidopsis; conditions: ABA-independent
Protocol: To investigate how PYL13 may function in plants, the interaction between PYL13 and clade A PP2Cs in yeast two-hybrid assays was examined, as shown in FIG. 3. […] PYL13 binds strongly with ABI1, ABI2, PP2CA, and HAI2 but weakly with HAB1 and HAI1 (FIG. 3A). […] PYL13 fused to the GAL4-DNA-binding domain (BD) was used as […], and PP2Cs fused to the GAL4-activating domain (AD) were used as baits. Interaction was determined by growth assay on media lacking His and His/Ade in the presence and absence of ABA. Dilutions (10^−1, 10^−2, and 10^−3) of saturated cultures were spotted onto the plates, which were photographed after 5 days.

Molecule: PYL2: Arabidopsis thaliana PYL family ABA receptor protein PYL2, AT2G26040
- ABI1 phosphatase activity reduced to (ABI1 [1]): 50±3%

B1: PYL13: Arabidopsis thaliana PYR/PYL/RCAR family protein PYL13, SEQ ID NO: 1 (protein, listed as Arabidopsis thaliana)
chain: MESSKQKRCRSSVVETIEAPLPLVWSILRSFDKPQAYQRFVKSCTMRSGGGGGKGGEGKGSVRDVTLVSGFPADFSTERLEELDDESHVMVVSIIGGNHRLVNYKSKTKVVASPEDMAKKTVVVESYVVDVPEGTSEEDTIFFVDNIIRYNLTSLAKLTKKMMK
- ABI2 phosphatase activity reduced to (ABI2; with 1.25 μM ABA): 93±6%
- ABI2 phosphatase activity reduced to (ABI2; without ABA): 89±8%
- ABI1 phosphatase activity reduced to (ABI1 [2]; with 1.25 μM ABA): 75±3%
- ABI1 phosphatase activity reduced to (ABI1 [2]; without ABA): 75±3%
- binding in yeast two-hybrid assay (clade A PP2Cs; with ABI1, ABI2, PP2CA, and HAI2): strongly
- binding in yeast two-hybrid assay (clade A PP2Cs; with HAB1 and HAI1): weakly
